Data from patent publication CN112851815A (XIAN YUFAN BIOTECHNOLOGIES CO LTD, dated 2021).

Columns and labels:
[1] = target: T1, BSA蛋白 (BSA, control protein) (UniProt P02769 25-607); experiment: ELISA, BSA coated at 2 μg/mL, serially diluted scFv, detection by anti-HA and HRP goat anti-mouse IgG
T1 construct: Control protein coated at 2 μg/mL; also called 对照蛋白

[2] = target: T2, BCMA蛋白 (BCMA protein, B cell maturation antigen) (human, UniProt Q02223 1-54); experiment: ELISA, BCMA coated at 2 μg/mL, serially diluted scFv, detection by mouse anti-HA and HRP goat anti-mouse IgG, OD450
T2 construct: extracellular domain; also called 抗原BCMA; CD269
T2 sequence (looked up): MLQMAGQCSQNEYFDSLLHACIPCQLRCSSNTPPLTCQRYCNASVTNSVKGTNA

T1 sequence (P02769 25-607 limits assumed): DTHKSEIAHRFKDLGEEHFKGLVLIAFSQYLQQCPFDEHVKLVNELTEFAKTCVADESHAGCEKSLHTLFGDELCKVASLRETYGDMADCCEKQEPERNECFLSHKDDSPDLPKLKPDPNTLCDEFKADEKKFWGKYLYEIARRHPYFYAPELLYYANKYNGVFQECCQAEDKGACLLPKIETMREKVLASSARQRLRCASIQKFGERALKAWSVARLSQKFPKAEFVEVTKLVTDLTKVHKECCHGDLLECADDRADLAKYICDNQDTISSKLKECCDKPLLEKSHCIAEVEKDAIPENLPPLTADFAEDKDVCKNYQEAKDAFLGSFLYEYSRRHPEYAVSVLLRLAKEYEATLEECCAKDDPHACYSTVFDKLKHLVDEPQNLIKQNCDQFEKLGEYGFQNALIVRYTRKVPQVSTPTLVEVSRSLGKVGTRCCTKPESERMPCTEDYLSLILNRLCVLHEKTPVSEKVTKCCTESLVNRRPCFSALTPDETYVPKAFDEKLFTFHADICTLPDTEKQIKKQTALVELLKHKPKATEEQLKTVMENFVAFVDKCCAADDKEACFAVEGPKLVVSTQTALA

B1: 抗BCMA单链抗体B36 (anti-BCMA fully human scFv B36) (scFv)
scFv: QVQLVQSGAEVKKPGSSVKVSCKASGGTFSSYAISWVRQAPGQGLEWMGRIIPILGIANYAQKFQGRVTITADESTSTAYMELSSLRSDDTAVYYCARAGYDRSGYYFQHWGQGTLVTVSSGGGGSGGGGSGGGGSVLTQPPSVSGTPGQRVTISCSGSSSNIGSNIVNWYQQVPGTAPKLLIYSNNQRPSGVPGRFSGSKSGTSASLAIRGLQSDDEADYYCAAWDGGPRGHYVFGTGTKVSVL
notes: The purified protein carries C-terminal HA and 6xHis tags; also called 抗BCMA抗体; 抗人BCMA单链抗体; not shown: C-terminal 6xHis tag from vector pET-26b; junction residues between insert and t
With B1 the binding result [1] was “no binding” and the EC50 [2] was 0.5 nM.
